Results from patent US20180140689A1 (PROBIODRUG, published 2018).
Non-standard residues stand in square brackets, D forms with d. No end group written: not given here. pGlu = O=C1CC[C@@H](C(=O)O)N1

T1: human Aβ pE3-18 peptide, pEFRHDSGYEVHHQKLV (human)
T1 construct: The range 3-18 counts on the Aβ peptide; also called pE3-Aβ18; pE3-Aβ peptide
T1 peptide: [pGlu]FRHDSGYEVHHQKLV


Biological target: T1, human Aβ pE3-18 peptide, …
Test: SPR, 1:1 Langmuir fit
Experimental: First a polyclonal α-human antibody was coupled to an SPR-Chip subsequent loaded with the humanized antibody until the Response Unit was more than 1000.
Kinetic measurement was performed at different concentrations (of 5 to 1000 nM) of AβpE3-18-peptide. The graphs of the measured series are shown as an overlay plot with the sensorgrams, corrected by the sensogram measuring the running buffer, aligned at the time of injection and the baseline adjusted to zero before injection. The results are evaluated according to a simple 1:1 interaction model (Langmuir fit), which promote the koff and kₒₙ rate constants.

| Molecule | Kd | koff | kon |
| --- | --- | --- | --- |
| humanized antibody clone #6 sequence variant VH: SEQ ID NO: 27, VL: SEQ ID NO: 14 (antibody, human IgG1, V domains shown) VH: QVQLVQSGAEVKKSGASVKVSCKASGYSFTGHTMNWVRQAPGQGLEWMGLINPSNGVTRYNQKFQGRVTITRDTSTTTVHMELTSLTSEDTATYYCTREAKREWDETYWGQGTLVTVSS VL: DVVMTQSPLSLPVTLGQPASISCKSSQSLLYSDGKTYLNWFQQRPGQSPRRLTYLVSKLDSGVPDRFSGSGSGTDFTLKISRVEAEDVGVYYCVQGTHFPFTFGGGTKVEIK | 5.09 nM | 0.00323 s⁻¹ | 635000 M⁻¹ s⁻¹ |
| humanized antibody clone #6 sequence variant VH: SEQ ID NO: 24, VL: SEQ ID NO: 14 (antibody, human IgG1, V domains shown) VH: QVQLVQSGAEVKKSGASVKVSCKASGYSFTGHTMNWVRQAPGQGLEWMGLINPSNGVTRYNQKFQGRVTITRDTSTTTVHMELTSLTSEDTAVYYCTREAKREWDETYWGQGTLVTVSS VL: DVVMTQSPLSLPVTLGQPASISCKSSQSLLYSDGKTYLNWFQQRPGQSPRRLTYLVSKLDSGVPDRFSGSGSGTDFTLKISRVEAEDVGVYYCVQGTHFPFTFGGGTKVEIK | 9.36 nM | 0.00576 s⁻¹ | 616000 M⁻¹ s⁻¹ |
| humanized antibody clone #6 sequence variant VH: SEQ ID NO: 70, VL: SEQ ID NO: 14 (antibody, human IgG1, V domains shown) VH: QVQLVQSGAEVKKSGASVKVSCKASGYSFTGHTMNWVRQAPGQGLEWMGLINPSNEVTRYNQKFQGRVTITRDTSTTTVHMELTSLTSEDTATYYCTREAKREWDETYWGQGTLVTVSS VL: DVVMTQSPLSLPVTLGQPASISCKSSQSLLYSDGKTYLNWFQQRPGQSPRRLTYLVSKLDSGVPDRFSGSGSGTDFTLKISRVEAEDVGVYYCVQGTHFPFTFGGGTKVEIK | 8.43 nM | 0.00357 s⁻¹ | 423000 M⁻¹ s⁻¹ |
| humanized antibody clone #6 sequence variant VH: SEQ ID NO: 27, VL: SEQ ID NO: 15 (antibody, human IgG1, V domains shown) VH: QVQLVQSGAEVKKSGASVKVSCKASGYSFTGHTMNWVRQAPGQGLEWMGLINPSNGVTRYNQKFQGRVTITRDTSTTTVHMELTSLTSEDTATYYCTREAKREWDETYWGQGTLVTVSS VL: DVVMTQSPLSLPVTLGQPASISCKSSQSLLHSDGKTYLNWFQQRPGQSPRRLTYLVSKLDSGVPDRFSGSGSGTDFTLKISRVEAEDVGVYYCVQGTHFPFTFGGGTKVEIK | 15.5 nM | 0.00415 s⁻¹ | 267000 M⁻¹ s⁻¹ |
| humanized antibody clone #6 sequence variant VH: SEQ ID NO: 27, VL: SEQ ID NO: 13 (antibody, human IgG1, V domains shown) VH: QVQLVQSGAEVKKSGASVKVSCKASGYSFTGHTMNWVRQAPGQGLEWMGLINPSNGVTRYNQKFQGRVTITRDTSTTTVHMELTSLTSEDTATYYCTREAKREWDETYWGQGTLVTVSS VL: DVVMTQSPLSLPVTLGQPASISCKSSQSLLYSDGKTYLNWFQQRPGQSPRRLAYLVSKLDSGVPDRFSGSGSGTDFTLKISRVEAEDVGVYYCVQGTHFPFTFGGGTKVEIK | 7.35 nM | 0.00413 s⁻¹ | 562000 M⁻¹ s⁻¹ |

Biological target: full length human CD32A on CHO cells (human) (UniProt P12318)
Sequence (P12318 34-317): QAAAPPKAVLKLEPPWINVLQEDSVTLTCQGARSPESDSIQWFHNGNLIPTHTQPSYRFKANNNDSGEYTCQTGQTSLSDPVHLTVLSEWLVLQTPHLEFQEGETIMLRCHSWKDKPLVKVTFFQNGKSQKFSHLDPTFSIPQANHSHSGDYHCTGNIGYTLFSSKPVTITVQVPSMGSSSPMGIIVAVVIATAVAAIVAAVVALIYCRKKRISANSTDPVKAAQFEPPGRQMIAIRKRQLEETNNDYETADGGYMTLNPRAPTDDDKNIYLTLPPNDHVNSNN
Test: FACS on CHO cells stably expressing full length human CD32A, bound antibody detected with fluorochrome-conjugated anti-Fab'

| Molecule | EC50 (read off the curve) |
| --- | --- |
| antibody comprising the K324A mutant variant of the human IgG1 Fc region (SEQ ID NO: 74) | 100 nM |
| antibody comprising the human IgG1 Fc wild-type region of SEQ ID NO: 73 | 100 nM |
